Reference: patent US12187772 (Regeneron, dated 2025)
Where two headings read alike, the source gives them in different places.

T1: IL10 receptor (IL10 receptor subunit alpha IL10Ra and beta subunit IL10Rb) on Ramos/STAT3-Luc and … (UniProt Q13651 22-578; Q08334 20-325, limits assumed)
T1 sequence (looked up) 1: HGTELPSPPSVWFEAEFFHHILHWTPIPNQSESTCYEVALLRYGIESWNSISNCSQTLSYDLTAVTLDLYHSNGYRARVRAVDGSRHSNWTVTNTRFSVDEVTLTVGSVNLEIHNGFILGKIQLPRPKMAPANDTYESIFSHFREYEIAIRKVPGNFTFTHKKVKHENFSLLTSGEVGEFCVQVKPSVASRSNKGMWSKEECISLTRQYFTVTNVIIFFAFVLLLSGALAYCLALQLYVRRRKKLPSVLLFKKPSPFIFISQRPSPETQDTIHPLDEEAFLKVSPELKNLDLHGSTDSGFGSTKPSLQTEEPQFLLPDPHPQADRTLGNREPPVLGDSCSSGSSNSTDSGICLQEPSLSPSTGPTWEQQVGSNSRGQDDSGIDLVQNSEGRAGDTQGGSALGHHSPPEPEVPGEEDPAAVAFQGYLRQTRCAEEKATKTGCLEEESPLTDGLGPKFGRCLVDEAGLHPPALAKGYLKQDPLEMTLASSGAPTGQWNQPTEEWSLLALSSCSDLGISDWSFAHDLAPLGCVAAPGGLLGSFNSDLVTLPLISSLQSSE
T1 sequence (looked up) 2: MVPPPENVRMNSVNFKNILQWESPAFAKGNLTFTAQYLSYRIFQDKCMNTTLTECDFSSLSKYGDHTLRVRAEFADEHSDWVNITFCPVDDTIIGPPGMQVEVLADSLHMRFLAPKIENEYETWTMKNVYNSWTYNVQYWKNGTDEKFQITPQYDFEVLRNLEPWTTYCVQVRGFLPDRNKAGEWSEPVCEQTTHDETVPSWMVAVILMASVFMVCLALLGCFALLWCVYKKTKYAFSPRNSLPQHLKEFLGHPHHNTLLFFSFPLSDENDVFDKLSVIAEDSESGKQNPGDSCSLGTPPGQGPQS


Experiments:
Experiment in all cases: cell-based or functional assay
[1] = target: T1, IL10 receptor (IL10 receptor subunit …)
[2] = target: T1, IL10 receptor (IL10 receptor subunit …); remark: listed apart in the source
[3] = target: T1, IL10 receptor (IL10 receptor subunit …); remark: listed apart in the source

EC50 [M] of luciferase activity, Ramos/STAT3-Luc reporter cells [1] [M] | EC50 [M] of luciferase activity, TF-1/STAT3-Luc reporter cells [1] [M] | Fold Induction of luciferase activity, Ramos/Stat3-Luc reporter cells [1] [fold] | Fold Induction of luciferase activity, TF-1/Stat3-Luc reporter cells [1] [fold] | Fold Induction of luciferase activity, Ramos/Stat3-Luc reporter cells [2] [fold] | Fold Induction of luciferase activity, TF-1/Stat3-Luc reporter cells [2] [fold] | Binder | further results
2.19e-10 | 4.51e-10 | 3.2 | 3.4 | – | – | IL10M3 (hIL10-1XG4S-Fc; Fc is murine IgG1) (Fc fusion) SPGQGTQSENSCTHFPGNLPNMLRDLRDAFSRVKTFFQMKDQLDNLLLKESLLEDFKGYLGCQALSEMIQFYLEEVMPQAENQDPDIKAHVNSLGENLKTLRLRLRRCHRFLPCENKSKAVEQVKNAFNKLQEKGIYKAMSEFDIFINYIEAYMTMKIRNGGGGSVPRDCGCKPCICTVPEVSSVFIFPPKPKDVLTITLTPKVTCVVVDISKDDPEVQFSWFVDDVEVHTAQTQPREEQFNSTFRSVSELPIMHQDWLNGKEFKCRVNSAAFPAPIEKTISKTKGRPKAPQVYTIPPPKEQMAKDKVSLTCMITDFFPEDITVEWQWNGQPAENYKNTQPIMDTDGSYFVYSKLNVQKSNWEAGNTFTCSVLHEGLHNHHTEKSLSHSPGK | –
1.19e-10 | 1.18e-10 | 3.7 | 4.8 | – | – | IL10M1 (Fc-3XG4S-hIL10; Fc is IgG4s) (Fc fusion) ESKYGPPCPPCPAPPVAGPSVFLFPPKPKDTLMISRTPEVTCVVVDVSQEDPEVQFNWYVDGVEVHNAKTKPREEQFNSTYRVVSVLTVLHQDWLNGKEYKCKVSNKGLPSSIEKTISKAKGQPREPQVYTLPPSQEEMTKNQVSLTCLVKGFYPSDIAVEWESNGQPENNYKTTPPVLDSDGSFFLYSRLTVDKSRWQEGNVFSCSVMHEALHNHYTQKSLSLSLGKGGGGSGGGGSGGGGSSPGQGTQSENSCTHFPGNLPNMLRDLRDAFSRVKTFFQMKDQLDNLLLKESLLEDFKGYLGCQALSEMIQFYLEEVMPQAENQDPDIKAHVNSLGENLKTLRLRLRRCHRFLPCENKSKAVEQVKNAFNKLQEKGIYKAMSEFDIFINYIEAYMTMKIRN | EC50 of luciferase activity, Ramos/Stat3-Luc reporter cells (IL10M1 L1) [2]: 0.117 nM; EC50 of luciferase activity, Ramos/Stat3-Luc reporter cells (IL10M1 L2) [2]: 0.148 nM; EC50 of luciferase activity, TF-1/Stat3-Luc reporter cells (IL10M1 L1) [2]: 0.139 nM; EC50 of luciferase activity, TF-1/Stat3-Luc reporter cells (IL10M1 L2) [2]: 0.134 nM; Fold Induction of luciferase activity, Ramos/Stat3-Luc reporter cells (IL10M1 L1) [2]: 4.11 fold; Fold Induction of luciferase activity, Ramos/Stat3-Luc reporter cells (IL10M1 L2) [2]: 3.66 fold; Fold Induction of luciferase activity, TF-1/Stat3-Luc reporter cells (IL10M1 L1) [2]: 4.12 fold; Fold Induction of luciferase activity, TF-1/Stat3-Luc reporter cells (IL10M1 L2) [2]: 3.4 fold
– | – | – | – | 1.1 | 1 | hIgG1 (anti-FelD1 human IgG1 Fc isotype control) (antibody, V domains shown) VH: QVQLQESGPGLVKPSETLSLTCTVSGGSISSYYWSWIRQPPGKGLEWIGYIYYSGRTNYNPSLKSRVTISVDTSKNQFSLKLSSVTAADTAIYYCARHRVTRTADSFDYWGQGTLVTVSS VL: DIQMTQSPSSLSASVGDRVTITCQASQDINNYLNWYQQKTGKAPKFLIYDASNLETGVSSRFSGSGSGTDFTFTISSLQPEDVGTYYCHQYGDLPYTFGQGTKLEIKR | –
– | – | – | – | – | – | IL10M8 (hIL10-Fc; Fc is IgG4s) (Fc fusion) SPGQGTQSENSCTHFPGNLPNMLRDLRDAFSRVKTFFQMKDQLDNLLLKESLLEDFKGYLGCQALSEMIQFYLEEVMPQAENQDPDIKAHVNSLGENLKTLRLRLRRCHRFLPCENKSKAVEQVKNAFNKLQEKGIYKAMSEFDIFINYIEAYMTMKIRNESKYGPPCPPCPAPPVAGPSVFLFPPKPKDTLMISRTPEVTCVVVDVSQEDPEVQFNWYVDGVEVHNAKTKPREEQFNSTYRVVSVLTVLHQDWLNGKEYKCKVSNKGLPSSIEKTISKAKGQPREPQVYTLPPSQEEMTKNQVSLTCLVKGFYPSDIAVEWESNGQPENNYKTTPPVLDSDGSFFLYSRLTVDKSRWQEGNVFSCSVMHEALHNHYTQKSLSLSLGK | EC50 of luciferase activity, Ramos/Stat3-Luc reporter cells [3]: 0.268 nM; EC50 of luciferase activity, TF-1/Stat3-Luc reporter cells [3]: 0.484 nM; Fold Induction of luciferase activity, Ramos/Stat3-Luc reporter cells [3]: 3.2 fold; Fold Induction of luciferase activity, TF-1/Stat3-Luc reporter cells [3]: 2.34 fold
2.13e-10 | 5.15e-10 | 3.6 | 4.1 | – | – | IL10M2 (hIL10-3XG4S-Fc; Fc is IgG4s) (Fc fusion) SPGQGTQSENSCTHFPGNLPNMLRDLRDAFSRVKTFFQMKDQLDNLLLKESLLEDFKGYLGCQALSEMIQFYLEEVMPQAENQDPDIKAHVNSLGENLKTLRLRLRRCHRFLPCENKSKAVEQVKNAFNKLQEKGIYKAMSEFDIFINYIEAYMTMKIRNGGGGSGGGGSGGGGSESKYGPPCPPCPAPPVAGPSVFLFPPKPKDTLMISRTPEVTCVVVDVSQEDPEVQFNWYVDGVEVHNAKTKPREEQFNSTYRVVSVLTVLHQDWLNGKEYKCKVSNKGLPSSIEKTISKAKGQPREPQVYTLPPSQEEMTKNQVSLTCLVKGFYPSDIAVEWESNGQPENNYKTTPPVLDSDGSFFLYSRLTVDKSRWQEGNVFSCSVMHEALHNHYTQKSLSLSLGK | EC50 of luciferase activity, Ramos/Stat3-Luc reporter cells (IL10M2 L1) [2]: 0.254 nM; EC50 of luciferase activity, Ramos/Stat3-Luc reporter cells (IL10M2 L2) [2]: 0.192 nM; EC50 of luciferase activity, TF-1/Stat3-Luc reporter cells (IL10M2 L1) [2]: 0.507 nM; EC50 of luciferase activity, TF-1/Stat3-Luc reporter cells (IL10M2 L2) [2]: 0.45 nM; Fold Induction of luciferase activity, Ramos/Stat3-Luc reporter cells (IL10M2 L1) [2]: 3.42 fold; Fold Induction of luciferase activity, Ramos/Stat3-Luc reporter cells (IL10M2 L2) [2]: 3.06 fold; Fold Induction of luciferase activity, TF-1/Stat3-Luc reporter cells (IL10M2 L1) [2]: 2.85 fold; Fold Induction of luciferase activity, TF-1/Stat3-Luc reporter cells (IL10M2 L2) [2]: 2.68 fold
– | – | 1.1 | 1.1 | – | – | mIgG1 (murine IgG1 Fc isotype control; control antibody with murine IgG1 sequence) (antibody, V domains shown) VH: QVQLQESGPGLVAPSQSLSITCTVSGFSLTTFGVHWVRQSPGKGLEWLGVIWADETTNYNSALMSRLSISKDNSKSQVFLKMNGLRTDDTAIYSCARSKVSYYFDYWGRGTTLTVSS VL: NIMMTQSPSSLPVSPGEKVTMNCKSSRSVLYSLNQKNYLAWYQQKPGQSPKLLIYWASTRESGVPDRFTGSGSGTDFSLTISSVQAEDLAVYYCHQYLSSWTFGGGTKLEIKR | –
5.07e-11 | 7.05e-11 | 4.5 | 5.9 | 5.16 | 4.02 | Recombinant human IL10 (obtained from Peprotech, Princeton NJ, Product #200-10) (ligand) SPGQGTQSENSCTHFPGNLPNMLRDLRDAFSRVKTFFQMKDQLDNLLLKESLLEDFKGYLGCQALSEMIQFYLEEVMPQAENQDPDIKAHVNSLGENLKTLRLRLRRCHRFLPCENKSKAVEQVKNAFNKLQEKGIYKAMSEFDIFINYIEAYMTMKIRN | EC50 of luciferase activity, Ramos/Stat3-Luc reporter cells [2]: 0.0482 nM; EC50 of luciferase activity, TF-1/Stat3-Luc reporter cells [2]: 0.063 nM
– | – | 1 | 1.4 | 1.01 | 0.99 | hIgG4s (human IgG4 Fc isotype control; Fc is IgG4s) (antibody, V domains shown) VH: EVQLVESGGGLVQPGGSLRLSCAASGFTLSTYAMTWVRQAPGKGLEWVSAINYRAANTWYADSVKGRFTISRDNSKNTLYLQMNSLRDEDTAVYYCAQDRVIIKDYYVMDVWGQGTTVTVSS VL: not shown | –
